Test results: patent US20230024933

T1: phosphotyrosine substrate peptide ENDpYINASL
T1 chain: ENDYINASL

T2: phosphoserine substrate peptide RRApSVA
T2 chain: RRASVA

B1: EYA1 isoform A (human splice variant EYA1A, exon 10 included) (protein)
chain: MLLFPQVAVKTEPMSSSETASTTADGSLNNFSGSAIGSSSFSPRPTHQFSPPQIYPSNRPYPHILPTPSSQTMAAYGQTQFTTGMQQATAYATYPQPGQPYGISSYGALWAGIKTEGGLSQSQSPGQTGFLSYGTSFSTPQPGQAPYSYQMQGSSFTTSSGIYTGNNSLTNSSGFNSSQQDYPSYPSFGQGQYAQYYNSSPYPAHYMTSSNTSPTTPSTNATYQLQEPPSGITSQAVTDPTAEYSTIHSPSTPIKDSDSDRLRRGSDGKSRGRGRRNNNPSPPPDSDLERVFIWDLDETIIVFHSLLTGSYANRYGRDPPTSVSLGLRMEEMIFNLADTHLFFNDLEECDQVHIDDVSSDDNGQDLSTYNFGTDGFPAAATSANLCLATGVRGGVDWMRKLAFRYRRVKEIYNTYKNNVGGLLGPAKREAWLQLRAEIEALTDSWLTLALKALSLIHSRTNCVNILVTTTQLIPALAKVLLYGLGIVFPIENIYSATKIGKESCFERIIQRFGRKVVYVVIGDGVEEEQGAKKHAMPFWRISSHSDLMALHHALELEYL
B2: mutant EYA1A in which exon 10 had been removed (EYA1AΔe10) (protein)
chain: MLLFPQVAVKTEPMSSSETASTTADGSLNNFSGSAIGSSSFSPRPTHQFSPPQIYPSNRPYPHILPTPSSQTMAAYGQTQFTTGMQQATAYATYPQPGQPYGISSYGALWAGIKTEGGLSQSQSPGQTGFLSYGTSFSTPQPGQAPYSYQMQGSSFTTSSGIYTGNNSLTNSSGFNSSQQDYPSYPSFGQGQYAQYYNSSPYPAHYMTSSNTSPTTPSTNATYQLQEPPSGITSQAVTDPTAEYSTIHSPSTPIKDSDSDRLRRGSDGKSRGRGRRNNNPSPPPDSDLERVFIWDLDETIIVFHSLLTGSYANRYGRECDQVHIDDVSSDDNGQDLSTYNFGTDGFPAAATSANLCLATGVRGGVDWMRKLAFRYRRVKEIYNTYKNNVGGLLGPAKREAWLQLRAEIEALTDSWLTLALKALSLIHSRTNCVNILVTTTQLIPALAKVLLYGLGIVFPIENIYSATKIGKESCFERIIQRFGRKVVYVVIGDGVEEEQGAKKHAMPFWRISSHSDLMALHHALELEYL

Experiments:
[1] = target: histone γH2A.X^pY142, endogenous in primary murine fibroblast cultures, P27661
[2] = target: T1, phosphotyrosine substrate peptide …
[3] = target: T2, phosphoserine substrate peptide RRApSVA

Row | Protein | γH2A.X^pY142 foci per nucleus after NCS exposure [1] | tyrosine phosphatase activity (dephosphorylation assay with phosphorylated peptide) [2] | serine phosphatase activity (dephosphorylation assay) [3]
1 | B1 | EYA1A overexpression induced premature γH2A.X^pY142 dephosphorylation and clearance of DSBs | confirmed increased tyrosine phosphatase activity of EYA1A | –
2 | B2 | deletion of EYA1A critical exon 10 (EYA146e10) normalized premature γH2A.X^pY142 dephosphorylation and γH2A.X clearance | – | dephosphorylation assays using the synthetic serine phosphatase substrate RRApSVA demonstrated superior serine phosphatase activity
